From publication PMC6985235, “Endomembrane Protein Trafficking Regulated by a TvCyP2 Cyclophilin in the Protozoan Parasite, Trichomonas vaginalis” (Scientific Reports, 2020) come the findings set out here.

One experiment deals with T1, GST-TvCyP2(R75A) (Trichomonas vaginalis, UniProt A2DLL4 1-186, R75A).
T1 construct: source: E. coli DH5α, purified (glutathione-conjugated beads)
Nature of the experiment: pull-down; GST pull-down: 30 picomoles of GST or GST-fusion protein on 20 μl glutathione beads with 35 nM His-tagged protein in 1 ml TEN200 (1 mM EDTA, 200 mM NaCl, 20 mM Tris-HCl pH 7.4), 4 °C overnight; washes with 0.1% TritonX-100; anti-6xHis Western blot; in Fig. 3D also with DMSO or 5 μM cyclosporine A (binding greatly diminished). Conditions: both partners purified. (In general: A western blot detects proteins with antibodies after separation by electrophoresis.)

A further experiment deals with T2, GST-TvCyP2 (Trichomonas vaginalis, UniProt A2DLL4 1-186).
T2 construct: 186 aa; source: E. coli DH5α, purified (glutathione-conjugated beads)
The description is as above. The following applies: both partners purified.

B1: His-TvCyP1 (enzyme)
chain: not shown
notes: TvCyP1 cyclophilin of Trichomonas vaginalis; ~19-kDa band; source: purified
Consider B1, for which the binding result in the experiment with GST-TvCyP2(R75A) and with GST-TvCyP2 was “binds” each time.
